US20150128304A1 (UNIVERSITY OF TOKYO, published 2015)

Molecular target: T1, DREB2A full-length fused to a YFP fragment (BiFC construct in pBI221) (Arabidopsis thaliana, UniProt O82132 1-335)
T1 construct: domain: full-length; Transiently expressed in Arabidopsis protoplasts, MG132 added to stabilise DREB2A; not shown: N-terminal or C-terminal half of YFP
Assay: BiFC (split YFP), transient expression in Arabidopsis protoplasts
Procedure: Transient expression analysis using protoplasts from Arabidopsis thaliana mesophyll cells was conducted in accordance with the method of Yoo et al. [Yoo et al., Nat. Protoc., Vol. 2, pp. 1565-1572 ([…])]. To offer a brief explanation, the gene was introduced into the protoplast; after standing for 14 hours, MG132, a proteasome inhibitor, was added to make a final concentration of 50 μM to stabilize the DREB2A in the plant. After standing for another 4 hours, the YFP fluorescence was examined.
Specifically, two plasmids containing DREB2A and Arabidopsis thaliana NF-YC10 were produced by amplifying full-length cDNA of DREB2A and full-length cDNA of Arabidopsis thaliana NF-YC10 by PCR and attaching each to either pBI221 [Qin et al., Plant Cell, Vol. 20, pp. 1693-1707 (2008)] which is an expression vector containing cDNA encoding the N terminal side or C terminal side of YFP, and a transient expression analysis study of both plasmids was conducted. Furthermore, one transferred from Feng Qin Ph.D. (Japan International Research Center for Agricultural Sciences, Japan) was used as the DREB2A full-length cDNA-ligated pBI221 plasmid. Full-length cDNA of Arabidopsis thaliana NF-YC10 was produced by amplification by PCR using the following primer pair and introduction at the XbaI/ClaI site of the above expression vector.

T1 sequence (O82132 whole entry, the tested form may be a part): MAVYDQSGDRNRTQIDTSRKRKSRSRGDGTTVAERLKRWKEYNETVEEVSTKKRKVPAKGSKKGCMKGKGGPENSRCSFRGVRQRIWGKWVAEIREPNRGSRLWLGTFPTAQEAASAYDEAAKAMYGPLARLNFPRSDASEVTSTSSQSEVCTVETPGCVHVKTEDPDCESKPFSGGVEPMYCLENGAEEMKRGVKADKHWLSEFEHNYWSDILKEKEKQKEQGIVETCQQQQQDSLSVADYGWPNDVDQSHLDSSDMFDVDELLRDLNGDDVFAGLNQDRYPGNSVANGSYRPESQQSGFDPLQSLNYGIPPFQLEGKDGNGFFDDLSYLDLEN

B1: Arabidopsis thaliana NF-YC10 full-length fused to a YFP fragment (BiFC construct in pBI221) (other)
chain: MVSSKKPKEKKARSDVVVNKASGRSKRSSGSRTKKTSNKVNIVKKKPEIYEISESSSSDSVEEAIRGDEAKKSNGVVSKRGNGKSVGIPTKTSKNREEDDGGAEDAKIKFPMNRIRRIMRSDNSAPQIMQDAVFLVNKATEMFIERFSEEAYDSSVKDKKKFIHYKHLSSVVSNDQRYEFLADSVPEKLKAEAALEEWERGMTDAG
notes: Transiently expressed in Arabidopsis thaliana mesophyll protoplasts; not shown: N-terminal or C-terminal half of YFP
Question: Does B1 bind?
Answer: binds
